# Experimental data: patent US20180364256A1 (WAYNE STATE UNIVERSITY, published 2018)
# T1: N-terminal fragment of human cardiac troponin T (HcTnT-N69) (human)
# T1 construct: Recombinantly produced and purified; immobilised on microtiter plates in the ELISA; also the immunogen; also called N69 peptide; isolated (free, cleaved) HcTnT-N69 peptide
# T1 peptide: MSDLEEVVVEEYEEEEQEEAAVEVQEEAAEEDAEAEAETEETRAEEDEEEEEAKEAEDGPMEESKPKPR
# Target: T1, N-terminal fragment of human cardiac …
# Experiment: indirect ELISA titration, antigen immobilised on plate
# Protocol: (§1) Purified HcTnT-N69 (also called N69) having the amino acid sequences shown in SEQ ID NO:1 or intact human cTnT antigen was immobilized on microtiter plates. After washing and blocking the plastic surface with 1% BSA and 0.05% Tween-20, the immobilized antigen was incubated with serial dilutions of the anti-N69 mAbs. Following washes to remove the unbound antibody, the plates were further incubated with HRP-conjugated second antibody followed by washes and H₂O₂-ABTS substrate reaction. A₄₁₅ₙₘ curve for each assay well was recorded by an automated microplate reader.
row,Binder,binding result
1,"mouse monoclonal antibody 3H5 (antibody, IgM, V domains shown, Mouse hybridoma mAb, IgM kappa (VH3/VL4); also called mAb 3H5; Class IV mAb) VH: GGGLVQPKGSLKLSCAASGFTFNTYAMNWVRQAPGKGLEWVARIRSKSNNYATYYADSVKDRFTISRDDSQSMLYLQMNNLKTEDTAMYYCVRHDGVAWFAYWGQGTLVTVSA VL: LSLPVSLGDQASISCRSSQSIVHSNGNTYLEWYLQKPGQSPKLLIYKVSNRFSGVPDRFSGSGSGTDFTLKISRVEAEDLGVYYCFQGSHVPPTFGAGTKLELKR",binds
2,"mouse monoclonal antibody 1D6 (antibody, V domains shown, Mouse hybridoma mAb, IgG1 kappa (VH1/VL1); they appear to lack the first N-terminal residues; also called mAb 1D6; Class I mAb) VH: GPELVKPGASVKISCKTSGYTFTENTIHWVKQSHGKSLEWVGGINPNNGGTNYNQKFKGRAALTVDKSSSTAYMELRSLTSEDSAVYYCARSWDWFAYWGQGTLVTVSA VL: LSLPVSLGDQASISCRSSQSLVHSNGNTYLHWYLQKPGQSPKLLVYKVSNRFSGVPDRFSGSGSGTDFTLKIIRVEAEDLGVYFCSQSTRIPFTFGSGTKLEMKR",binds
3,"mouse monoclonal antibody 2A8 (antibody, V domains shown, Mouse hybridoma mAb, IgG1 kappa (VH1/VL1), separately isolated hybridoma with the same variable regions as 1D6; also called Class I mAb; anti-N69 mAb) VH: GPELVKPGASVKISCKTSGYTFTENTIHWVKQSHGKSLEWVGGINPNNGGTNYNQKFKGRAALTVDKSSSTAYMELRSLTSEDSAVYYCARSWDWFAYWGQGTLVTVSA VL: LSLPVSLGDQASISCRSSQSLVHSNGNTYLHWYLQKPGQSPKLLVYKVSNRFSGVPDRFSGSGSGTDFTLKIIRVEAEDLGVYFCSQSTRIPFTFGSGTKLEMKR",binds

# Continued, values first:
row,binding result,Binder
1,binds,"mouse monoclonal antibody 2C1 (antibody, V domains shown, Mouse hybridoma mAb, IgG1 kappa (VH1/VL1), separately isolated hybridoma with the same variable regions as 1D6; also called Class I mAb; anti-N69 mAb) VH: GPELVKPGASVKISCKTSGYTFTENTIHWVKQSHGKSLEWVGGINPNNGGTNYNQKFKGRAALTVDKSSSTAYMELRSLTSEDSAVYYCARSWDWFAYWGQGTLVTVSA VL: LSLPVSLGDQASISCRSSQSLVHSNGNTYLHWYLQKPGQSPKLLVYKVSNRFSGVPDRFSGSGSGTDFTLKIIRVEAEDLGVYFCSQSTRIPFTFGSGTKLEMKR"
2,binds,"mouse monoclonal antibody 2D11 (antibody, IgG1, V domains shown, Mouse hybridoma mAb, IgG1 kappa (VH1/VL2); also called mAb 2D11; Class II mAb) VH: GPELVKPGASVKISCKTSGYTFTENTIHWVKQSHGKSLEWVGGINPNNGGTNYNQKFKGRAALTVDKSSSTAYMELRSLTSEDSAVYYCARSWDWFAYWGQGTLVTVSA VL: LSLPVSLGDQASISCRSSQSLVHSNGNTYLHWYLQKPGQSPKLLVYKVSNRFSGVPDRFSGSGSGTDFTLKIIRVKAEDLGVYFCSQSTRIPFTFGSGTKLEMKR"
3,binds,"mouse monoclonal antibody 1E11 (antibody, IgG3, V domains shown, Mouse hybridoma mAb, IgG3 kappa (VH2/VL3); also called mAb 1E11; Class III mAb) VH: GAELAKPGASVKMSCKASGYTFTTYWMHWVKQRPGQGLEWIGFINPSTGYTEYNQKFKDKATLTADKSSSTAYMQLSSLTSGDSAVYYCARKSFAYWGHGTLVTVSA VL: not shown"

# Target: T1, N-terminal fragment of human cardiac …
# Experiment: assay not named in the sentence (ELISA titration per the Examples)
# Protocol: as §1
row,binding result,Binder
1,binds,"mouse monoclonal antibody 2H3 (antibody, IgM, V domains shown, Mouse hybridoma mAb, IgM kappa (VH3/VL5); also called mAb 2H3; Class V mAb) VH: GGGLVQPKGSLKLSCAASGFTFNTYAMNWVRQAPGKGLEWVARIRSKSNNYATYYADSVKDRFTISRDDSQSMLYLQMNNLKTEDTAMYYCVRHDGVAWFAYWGQGTLVTVSA VL: LSLPVSLGDQASISCRSSQSIVHSNGNTYLEWYLQKPGQSPKLLIYKVSNRFSGVPDRFSGSGSGTDFTLKISRVKAEDLGVYYCFQGSHVPPTFGAGTKLELKR"
2,binds,"mouse monoclonal antibody 4F5 (antibody, IgM, V domains shown, Mouse hybridoma mAb, IgM kappa (VH3/VL6); also called mAb 4F5; Class VI mAb) VH: GGGLVQPKGSLKLSCAASGFTFNTYAMNWVRQAPGKGLEWVARIRSKSNNYATYYADSVKDRFTISRDDSQSMLYLQMNNLKTEDTAMYYCVRHDGVAWFAYWGQGTLVTVSA VL: LSLPVSLGDQASISCKSSQSIVHSNGNTYLEWYLQKPGQSPKLLIYKVSNRFSGVPDRFSGSGSGTDFTLKISRVKAEDLGVYYCFQGSHVPPTFGAGTKLELKR"
3,binds,"mouse monoclonal antibody 2D9 (antibody, IgM, V domains shown, Mouse hybridoma mAb, IgM kappa (VH3/VL7); also called mAb 2D9; Class VII mAb) VH: GGGLVQPKGSLKLSCAASGFTFNTYAMNWVRQAPGKGLEWVARIRSKSNNYATYYADSVKDRFTISRDDSQSMLYLQMNNLKTEDTAMYYCVRHDGVAWFAYWGQGTLVTVSA VL: LSLPVSLGDQASISCKSSQSIVHSNGNTYLKWYLQKPGQSPKLLIYKVSNRFSGVPDRFSGSGSGTDFTLKISRVKAEDLGVYYCFQGSHVPPTFGAGTKLELKR"
